# The Human Domainome abundance scans (Beltran et al. 2025)
# ± gives the uncertainty stated by the source.
# B1: Retinoic acid receptor beta, residues 85 to 161; numbered along this chain, P10826 (parent)
# chain: YKPCFVCQDKSSGYHYGVSACEGCKGFFRRSIQKNMIYTCHRDKNCVINKVTRNRCQYCRLQKCFEVGMSKESVRND
# Variants of: B1
# Experiment: abundance fitness (aPCA) (normalised: wild type 0, dead -1); higher = more abundant; growth selection in yeast, the domain comes from the species named
# Conditions: Homo sapiens
row,Variant,abundance fitness
1,YKPCFVCQDKSSGYHYGVSACEGCKGFFRRSIQKNMIYTCHRDKNCVILKVTRNRCQYCRLQKCFEVGMSKESVRND,-0.218 ± 0.055
2,YKPCFVCQDKSSGYHYGVSACEGCKGFFRRSIQKNMIYTCHRDKNCVIDKVTRNRCQYCRLQKCFEVGMSKESVRND,0.235 ± 0.051
3,YKPCFVCQDKSSGYHYGVSACEGCKGFFRRSIQKNMIYTCHRDKNCVIHKVTRNRCQYCRLQKCFEVGMSKESVRND,-0.372 ± 0.059
4,YKPCFVCQDKSSGYHYGVSACEGCKGFFRRSIQKNMIYTCHRDKNCVIIKVTRNRCQYCRLQKCFEVGMSKESVRND,-0.239 ± 0.1
5,YKPCFVCQDKSSGYHYGVSACEGCKGFFRRSIQKNMIYTCHRDKNCVIAKVTRNRCQYCRLQKCFEVGMSKESVRND,-0.284 ± 0.044
6,YKPCFVCQDKSSGYHYGVSACEGCKGFFRRSIQKNMIYTCHRDKNCVIFKVTRNRCQYCRLQKCFEVGMSKESVRND,-0.368 ± 0.13
7,YKPCFVCQDKSSGYHYGVSACEGCKGFFRRSIQKNMIYTCHRDKNCVIKKVTRNRCQYCRLQKCFEVGMSKESVRND,-0.345 ± 0.062
8,YKPCFVCQDKSSGYHYGVSACEGCKGFFRRSIQKNMIYTCHRDKNCVIGKVTRNRCQYCRLQKCFEVGMSKESVRND,-0.255 ± 0.05
9,YKPCFVCQDKSSGYHYGVSACEGCKGFFRRSIQKNMIYTCHRDKNCVIEKVTRNRCQYCRLQKCFEVGMSKESVRND,0.003 ± 0.055
10,YKPCFVCQDKSSGYHYGVSACEGCKGFFRRSIQKNMIYTCHRDKNCVICKVTRNRCQYCRLQKCFEVGMSKESVRND,-0.598 ± 0.11
11,YKPCFVCQDKSSGYHYGVSACEGCKGFFRRSIQKNMIYTCHRDKNVVINKVTRNRCQYCRLQKCFEVGMSKESVRND,-0.737 ± 0.12
12,YKPCFVCQDKSSGYHYGVSACEGCKGFFRRSIQKNMIYTCHRDKNTVINKVTRNRCQYCRLQKCFEVGMSKESVRND,-0.53 ± 0.083
13,YKPCFVCQDKSSGYHYGVSACEGCKGFFRRSIQKNMIYTCHRDKNKVINKVTRNRCQYCRLQKCFEVGMSKESVRND,-1 ± 0.26
14,YKPCFVCQDKSSGYHYGVSACEGCKGFFRRSIQKNMIYTCHRDKNQVINKVTRNRCQYCRLQKCFEVGMSKESVRND,-1.01 ± 0.23
15,YKPCFVCQDKSSGYHYGVSACEGCKGFFRRSIQKNMIYTCHRDKNRVINKVTRNRCQYCRLQKCFEVGMSKESVRND,-0.767 ± 0.12
16,YKPCFVCQDKSSGYHYGVSACEGCKGFFRRSIQKNMIYTCHRDKNLVINKVTRNRCQYCRLQKCFEVGMSKESVRND,-0.668 ± 0.076
17,YKPCFVCQDKSSGYHYGVSACEGCKGFFRRSIQKNMIYTCHRDKNGVINKVTRNRCQYCRLQKCFEVGMSKESVRND,-0.123 ± 0.1
18,YKPCFVCQDKSSGYHYGVSACEGCKGFFRRSIQKNMIYTCHRDKNWVINKVTRNRCQYCRLQKCFEVGMSKESVRND,-0.681 ± 0.15
19,YKPCFVCQDKSSGYHYGVSACEGCKGFFRRSIQKNMIYTCHRDKNFVINKVTRNRCQYCRLQKCFEVGMSKESVRND,-0.988 ± 0.23
20,YKPCFVCQDKSSGYHYGVSACEGCKGFFRRSIQKNMIYTCHRDKNHVINKVTRNRCQYCRLQKCFEVGMSKESVRND,-0.475 ± 0.13
21,YKPCFVCQDKSSGYHYGVSACEGCKGFFRRSIQKNMIYTCHRDKNSVINKVTRNRCQYCRLQKCFEVGMSKESVRND,-0.562 ± 0.074
22,YKPCFVCQDKSSGYHYGVSACEGCKGFFRRSIQKNMIYTCHRDKNIVINKVTRNRCQYCRLQKCFEVGMSKESVRND,-0.711 ± 0.17
23,YKPCFVCQDKSSGYHYGVSACEGCKGFFRRSIQKNMIYTCHRDKNNVINKVTRNRCQYCRLQKCFEVGMSKESVRND,-0.704 ± 0.15
24,YKPCFVCQDKSSGYHYGVSACEGCKGFFRRSIQKNMIYTCHRDKNDVINKVTRNRCQYCRLQKCFEVGMSKESVRND,-0.352 ± 0.13

row,Variant,abundance fitness
1,YKPCFVCQDKSSGYHYGVSACEGCKGFFRRSIQKNMIYTCHRDKNEVINKVTRNRCQYCRLQKCFEVGMSKESVRND,-0.474 ± 0.13
2,YKPCFVCQDKSSGYHYGVSACEGCKGFFRRSIQKNMIYTCHRDKNPVINKVTRNRCQYCRLQKCFEVGMSKESVRND,-0.94 ± 0.15
3,YKPCFVCQDKSSGYHYGVSACEGCKGFFRRSIQKNMIYTCHRDKNCSINKVTRNRCQYCRLQKCFEVGMSKESVRND,0.024 ± 0.033
4,YKPCFVCQDKSSGYHYGVSACEGCKGFFRRSIQKNMIYTCHRDKNCMINKVTRNRCQYCRLQKCFEVGMSKESVRND,0.075 ± 0.047
5,YKPCFVCQDKSSGYHYGVSACEGCKGFFRRSIQKNMIYTCHRDKNCTINKVTRNRCQYCRLQKCFEVGMSKESVRND,0.056 ± 0.038
6,YKPCFVCQDKSSGYHYGVSACEGCKGFFRRSIQKNMIYTCHRDKNCPINKVTRNRCQYCRLQKCFEVGMSKESVRND,0.043 ± 0.041
7,YKPCFVCQDKSSGYHYGVSACEGCKGFFRRSIQKNMIYTCHRDKNCGINKVTRNRCQYCRLQKCFEVGMSKESVRND,-0.096 ± 0.043
8,YKPCFVCQDKSSGYHYGVSACEGCKGFFRRSIQKNMIYTCHRDKNCWINKVTRNRCQYCRLQKCFEVGMSKESVRND,-0.048 ± 0.048
9,YKPCFVCQDKSSGYHYGVSACEGCKGFFRRSIQKNMIYTCHRDKNCIINKVTRNRCQYCRLQKCFEVGMSKESVRND,-0.082 ± 0.044
10,YKPCFVCQDKSSGYHYGVSACEGCKGFFRRSIQKNMIYTCHRDKNCQINKVTRNRCQYCRLQKCFEVGMSKESVRND,0.026 ± 0.049
11,YKPCFVCQDKSSGYHYGVSACEGCKGFFRRSIQKNMIYTCHRDKNCCINKVTRNRCQYCRLQKCFEVGMSKESVRND,0.003 ± 0.044
12,YKPCFVCQDKSSGYHYGVSACEGCKGFFRRSIQKNMIYTCHRDKNCYINKVTRNRCQYCRLQKCFEVGMSKESVRND,0.107 ± 0.053
13,YKPCFVCQDKSSGYHYGVSACEGCKGFFRRSIQKNMIYTCHRDKNCRINKVTRNRCQYCRLQKCFEVGMSKESVRND,-0.075 ± 0.037
14,YKPCFVCQDKSSGYHYGVSACEGCKGFFRRSIQKNMIYTCHRDKNCNINKVTRNRCQYCRLQKCFEVGMSKESVRND,-0.103 ± 0.066
15,YKPCFVCQDKSSGYHYGVSACEGCKGFFRRSIQKNMIYTCHRDKNCDINKVTRNRCQYCRLQKCFEVGMSKESVRND,0.168 ± 0.063
16,YKPCFVCQDKSSGYHYGVSACEGCKGFFRRSIQKNMIYTCHRDKNCFINKVTRNRCQYCRLQKCFEVGMSKESVRND,-0.11 ± 0.057
17,YKPCFVCQDKSSGYHYGVSACEGCKGFFRRSIQKNMIYTCHRDKNCLINKVTRNRCQYCRLQKCFEVGMSKESVRND,0.03 ± 0.033
18,YKPCFVCQDKSSGYHYGVSACEGCKGFFRRSIQKNMIYTCHRDKNCHINKVTRNRCQYCRLQKCFEVGMSKESVRND,-0.077 ± 0.049
19,YKPCFVCQDKSSGYHYGVSACEGCKGFFRRSIQKNMIYTCHRDKNCAINKVTRNRCQYCRLQKCFEVGMSKESVRND,0.058 ± 0.042
20,YKPCFVCQDKSSGYHYGVSACEGCKGFFRRSIQKNMIYTCHRDKPCVINKVTRNRCQYCRLQKCFEVGMSKESVRND,-0.025 ± 0.051
21,YKPCFVCQDKSSGYHYGVSACEGCKGFFRRSIQKNMIYTCHRDKWCVINKVTRNRCQYCRLQKCFEVGMSKESVRND,-0.302 ± 0.12
22,YKPCFVCQDKSSGYHYGVSACEGCKGFFRRSIQKNMIYTCHRDKKCVINKVTRNRCQYCRLQKCFEVGMSKESVRND,0.053 ± 0.069
23,YKPCFVCQDKSSGYHYGVSACEGCKGFFRRSIQKNMIYTCHRDKECVINKVTRNRCQYCRLQKCFEVGMSKESVRND,0.049 ± 0.11
24,YKPCFVCQDKSSGYHYGVSACEGCKGFFRRSIQKNMIYTCHRDKFCVINKVTRNRCQYCRLQKCFEVGMSKESVRND,-0.251 ± 0.088

row,Variant,abundance fitness
1,YKPCFVCQDKSSGYHYGVSACEGCKGFFRRSIQKNMIYTCHRDKGCVINKVTRNRCQYCRLQKCFEVGMSKESVRND,-0.044 ± 0.082
2,YKPCFVCQDKSSGYHYGVSACEGCKGFFRRSIQKNMIYTCHRDKYCVINKVTRNRCQYCRLQKCFEVGMSKESVRND,-0.477 ± 0.14
3,YKPCFVCQDKSSGYHYGVSACEGCKGFFRRSIQKNMIYTCHRDKMCVINKVTRNRCQYCRLQKCFEVGMSKESVRND,-0.035 ± 0.087
4,YKPCFVCQDKSSGYHYGVSACEGCKGFFRRSIQKNMIYTCHRDKQCVINKVTRNRCQYCRLQKCFEVGMSKESVRND,0.078 ± 0.068
5,YKPCFVCQDKSSGYHYGVSACEGCKGFFRRSIQKNMIYTCHRDKVCVINKVTRNRCQYCRLQKCFEVGMSKESVRND,0.039 ± 0.065
6,YKPCFVCQDKSSGYHYGVSACEGCKGFFRRSIQKNMIYTCHRDKICVINKVTRNRCQYCRLQKCFEVGMSKESVRND,0.054 ± 0.066
7,YKPCFVCQDKSSGYHYGVSACEGCKGFFRRSIQKNMIYTCHRDKRCVINKVTRNRCQYCRLQKCFEVGMSKESVRND,0.059 ± 0.054
8,YKPCFVCQDKSSGYHYGVSACEGCKGFFRRSIQKNMIYTCHRDKHCVINKVTRNRCQYCRLQKCFEVGMSKESVRND,-0.021 ± 0.059
9,YKPCFVCQDKSSGYHYGVSACEGCKGFFRRSIQKNMIYTCHRDKSCVINKVTRNRCQYCRLQKCFEVGMSKESVRND,-0.057 ± 0.053
10,YKPCFVCQDKSSGYHYGVSACEGCKGFFRRSIQKNMIYTCHRDKLCVINKVTRNRCQYCRLQKCFEVGMSKESVRND,0.02 ± 0.045
11,YKPCFVCQDKSSGYHYGVSACEGCKGFFRRSIQKNMIYTCHRDKNCVSNKVTRNRCQYCRLQKCFEVGMSKESVRND,-0.48 ± 0.061
12,YKPCFVCQDKSSGYHYGVSACEGCKGFFRRSIQKNMIYTCHRDKNCVMNKVTRNRCQYCRLQKCFEVGMSKESVRND,0.042 ± 0.059
13,YKPCFVCQDKSSGYHYGVSACEGCKGFFRRSIQKNMIYTCHRDKNCVWNKVTRNRCQYCRLQKCFEVGMSKESVRND,-0.647 ± 0.13
14,YKPCFVCQDKSSGYHYGVSACEGCKGFFRRSIQKNMIYTCHRDKNCVGNKVTRNRCQYCRLQKCFEVGMSKESVRND,-0.605 ± 0.11
15,YKPCFVCQDKSSGYHYGVSACEGCKGFFRRSIQKNMIYTCHRDKNCVFNKVTRNRCQYCRLQKCFEVGMSKESVRND,-0.078 ± 0.055
16,YKPCFVCQDKSSGYHYGVSACEGCKGFFRRSIQKNMIYTCHRDKNCVPNKVTRNRCQYCRLQKCFEVGMSKESVRND,-0.417 ± 0.07
17,YKPCFVCQDKSSGYHYGVSACEGCKGFFRRSIQKNMIYTCHRDKNCVANKVTRNRCQYCRLQKCFEVGMSKESVRND,-0.531 ± 0.068
18,YKPCFVCQDKSSGYHYGVSACEGCKGFFRRSIQKNMIYTCHRDKNCVHNKVTRNRCQYCRLQKCFEVGMSKESVRND,-0.505 ± 0.47
19,YKPCFVCQDKSSGYHYGVSACEGCKGFFRRSIQKNMIYTCHRDKNCVCNKVTRNRCQYCRLQKCFEVGMSKESVRND,-0.72 ± 0.19
20,YKPCFVCQDKSSGYHYGVSACEGCKGFFRRSIQKNMIYTCHRDKNCVVNKVTRNRCQYCRLQKCFEVGMSKESVRND,-0.065 ± 0.04
21,YKPCFVCQDKSSGYHYGVSACEGCKGFFRRSIQKNMIYTCHRDKNCVLNKVTRNRCQYCRLQKCFEVGMSKESVRND,-0.096 ± 0.035
22,YKPCFVCQDKSSGYHYGVSACEGCKGFFRRSIQKNMIYTCHRDKNCVNNKVTRNRCQYCRLQKCFEVGMSKESVRND,-0.376 ± 0.17
23,YKPCFVCQDKSSGYHYGVSACEGCKGFFRRSIQKNMIYTCHRDKNCVTNKVTRNRCQYCRLQKCFEVGMSKESVRND,-0.161 ± 0.055
